The record followed here is PMC12069319, “Transcriptional co-regulator OCA-B/Pou2af1 restricts Th2 differentiation”.

The target of the data set is Oct1 DNA binding domain (Oct1-DBD);OCA-B (human (from pBabe-hOct1);, UniProt P14859;Q16633 280-438;1-256, |). The data set can be described thus: EMSA; OCA-B supershifts Oct1-DBD; EMSA: 0.6X buffer D (1X: 20 mM HEPES, 100 mM KCl, 1 mM DTT), 50 ng/ul poly-dI/dC, 1 ug/ul BSA, on ice 15 min, 6% native PAGE in 0.5X TBE; probe 50 nM (1 nM for). Particulars: protein: recombinant;recombinant; tags: His (pET28a);C-terminal twinstrep and FLAG; copies: 1;1; blunt.
Oct1 DNA binding domain (Oct1-DBD);OCA-B, sequence (P14859 280-438, chain 1 of 2): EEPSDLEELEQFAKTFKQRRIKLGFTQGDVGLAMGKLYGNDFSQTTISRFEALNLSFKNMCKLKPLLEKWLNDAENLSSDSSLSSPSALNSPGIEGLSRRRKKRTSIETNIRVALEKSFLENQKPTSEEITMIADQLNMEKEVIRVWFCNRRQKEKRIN
Oct1 DNA binding domain (Oct1-DBD);OCA-B, sequence (Q16633 whole entry, chain 2 of 2, the tested form may be a part): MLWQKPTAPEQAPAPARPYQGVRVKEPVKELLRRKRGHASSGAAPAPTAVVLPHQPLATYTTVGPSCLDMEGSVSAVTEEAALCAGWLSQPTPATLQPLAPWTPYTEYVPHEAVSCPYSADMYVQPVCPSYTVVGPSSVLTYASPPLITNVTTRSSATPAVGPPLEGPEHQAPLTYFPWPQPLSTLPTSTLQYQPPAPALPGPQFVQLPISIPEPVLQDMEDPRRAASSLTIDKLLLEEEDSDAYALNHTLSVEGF

B1: RHS6-Cy5 (dsDNA)
DNA 1: CACCATGCAAAGGATGTGCGCGGACTCCCTTCCATTTGCTGGCCTCTTATCTGATA
DNA 2: TATCAGATAAGAGGCCAGCAAATGGAAGGGAGTCCGCGCACATCCTTTGCATGGTG
For the molecule B1, the binding result is “binds”.
